Test [1] addresses T1, monkey MSR1 extracellular domain expressed with a N-terminal hexahistidine-myc-myc tag (HMM-mfMSR1) (monkey (Macaca fascicularis)).
T1 chain: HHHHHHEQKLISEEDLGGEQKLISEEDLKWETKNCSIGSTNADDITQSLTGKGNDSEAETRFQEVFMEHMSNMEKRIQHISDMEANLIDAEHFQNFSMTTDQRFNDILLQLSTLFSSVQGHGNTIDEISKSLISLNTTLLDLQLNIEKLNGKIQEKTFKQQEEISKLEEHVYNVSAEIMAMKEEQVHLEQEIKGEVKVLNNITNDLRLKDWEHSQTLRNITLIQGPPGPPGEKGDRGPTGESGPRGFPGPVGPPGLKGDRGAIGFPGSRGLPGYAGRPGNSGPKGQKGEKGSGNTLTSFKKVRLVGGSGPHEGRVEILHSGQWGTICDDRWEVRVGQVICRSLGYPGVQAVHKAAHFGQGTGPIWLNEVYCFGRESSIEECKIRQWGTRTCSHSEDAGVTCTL
The test is described as follows: SPR Biacore, 25C, mAb captured by anti-human Fc, MSR1 as analyte.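 Note: Half-life of complex dissociation derived from kinetic rates, obtained by fitting Biacore 4000 sensorgrams to a 1:1 model including mass transport, run in HBS-ET buffer at pH 7.4.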
Protocol: (§1) Binding affinities and kinetic constants of human anti-MSR1 antibodies for different MSR1 reagents were determined by real-time surface plasmon resonance (Biacore 4000). All binding studies were performed in 10 mM HEPES, 150 mM NaCl, 3 mM EDTA, and 0.05% v/v Surfactant Tween-20, pH 7.4 (HBS-ET) running buffer at 25° C. and 37° C.
(§2) The association rate (kₐ) and dissociation rate (kd) were determined by fitting the real-time binding sensorgrams to a 1:1 binding model with mass transport limitation using Scrubber 2.0 c curve-fitting software.

The target in test [2] is T2, human MSR1 extracellular domain expressed with a N-terminal nonahistidine tag (His9-hMSR1); R&D Systems, Cat … (human, UniProt P21757 77-451).
T2 construct: extracellular domain; Bought protein; also called His-hMSR1
T2 sequence: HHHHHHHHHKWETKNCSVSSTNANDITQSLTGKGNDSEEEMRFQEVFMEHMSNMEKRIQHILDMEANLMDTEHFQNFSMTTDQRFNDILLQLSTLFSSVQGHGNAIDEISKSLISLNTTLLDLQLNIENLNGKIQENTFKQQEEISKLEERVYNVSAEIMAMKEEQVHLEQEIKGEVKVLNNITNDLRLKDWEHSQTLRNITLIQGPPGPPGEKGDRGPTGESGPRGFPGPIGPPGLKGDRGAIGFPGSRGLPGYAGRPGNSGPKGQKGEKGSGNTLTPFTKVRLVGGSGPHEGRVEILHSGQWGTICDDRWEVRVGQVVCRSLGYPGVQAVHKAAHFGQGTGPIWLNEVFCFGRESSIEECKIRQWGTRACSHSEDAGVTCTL
The test can be described thus: SPR Biacore, 25C, mAb captured by anti-human Fc, MSR1 as analyte; calculated from kd fixed at 1.00E-05.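 Note: Half-life of complex dissociation derived from kinetic rates, obtained by fitting Biacore 4000 sensorgrams to a 1:1 model including mass transport, run in HBS-ET buffer at pH 7.4.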
Protocol: as §1, §2

Test [3] deals with T2, human MSR1 extracellular domain …. The test can be described thus: SPR Biacore, 25C, mAb captured by anti-human Fc, MSR1 as analyte.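 Note: Half-life of complex dissociation derived from kinetic rates, obtained by fitting Biacore 4000 sensorgrams to a 1:1 model including mass transport, run in HBS-ET buffer at pH 7.4.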
Protocol: as §1, §2

B1: H1H21234N-N297Q (antibody, V domains shown)
VH: QVQLQESGPGLVKPSETLSLTCTVTGGSISRNYWSWIRQPPGKGLEWIGYIYYSGSIDYNPSLKSRVTISVDTSKNQFSLKLSSMTAADTAVYYCARDRWNWKYGMDVWGQGTTVIVSS
VL: EIVLTQSPGTLSLSPGERATLSCRASQTVRNNYLAWYHQKPGQAPRLLIYGASSRATGIPDRFSGSGSGTDFTLTISRLEPEDFTVYYCHQYGNSPWTFGQGTKMEIKR
notes: human IgG1 Fc with N297Q point mutation
One may read the t½ as the time needed for the level to fall by half in the phase considered. Consider B1, for which the “t½” value in test [1] was 593 min; in test [2], 1160 min.

B2: H1H27766P-N297Q (antibody, V domains shown)
VH: EVQLVESGGGLVQPGGSLRLSCAASGFTFSSFAMSWVRQAPGKELEWVSSISGRGGSTYYADSVRGRFTISRDNSKITLYLQMNSLRAEDTAVYYCAKDIVFRYTSSAYWYFDLWGRGTLVTVSS
VL: not shown
notes: human IgG1 Fc with N297Q point mutation; also called H1H27766P2-N297Q; H1H27766P2
Consider B2, for which the results for the “t½” value in test [1] and in test [3] were 145 min and 620 min, respectively.

B3: H1H27760P-N297Q (antibody, V domains shown)
VH: EVQLVESGGGLVQPGRSLRLSCAASGFTFDAYAMHWVRQAPGKGLEWVSGISWNSGSIGYADSVKGRFTISRDNAKNSLYLQMNSLREEDTALYYCAKDKILELYYYGMDVWGQGTTVTVSS
VL: not shown
notes: human IgG1 Fc with N297Q point mutation; also called H1H27760P2-N297Q; H1H27760P2
On to B3, for which the entries for the “t½” value in test [1] and in test [3] were 16 min and 13 min, respectively.

B4: H1H27762P-N297Q (antibody, V domains shown)
VH: QVQLVQSGAEVKKPGSSVKVSCKASGGTFSRYDISWVRQAPGQGLEWMGGIIPIFGTSNYAQKFQGRVTITTDESTSTVYMELSSLRSEDTAVYYCARGGRYGWFDPWGQGTLVTVSS
VL: not shown
notes: human IgG1 Fc with N297Q point mutation; also called H1H27762P2-N297Q; H1H27762P2
Take B4: the “t½” value in test [1] and in test [3] was 6 min throughout.

B5: H1H27732P-N297Q (antibody, V domains shown)
VH: QLQLQESGPGLVKPSETLSLTCTVSGGSISSSTYYWGWIRQPPGKGLEWIGSFYYSGSTYYNPSLKSRVTISVGTSKNQFSLKLSSVTAADTAVYFCARGGLLGRPFVIWGQGTMVTVSS
VL: DIQMTQSPSSLSASVGDRVTITCRASQGIRNDLGWYQQKPGKAPKRLIYAASSLQSGVPSRFSGSGSGTEFTLTISSLQPEDFATYYCLQHNSYPLTFGGGTKVEIKR
notes: as for B1
B5: the figures for the “t½” value in test [1] and in test [2] were 364 min and 1160 min, respectively.

B6: H1H27739P-N297Q (antibody, V domains shown)
VH: EVQLVESGGGLVQPGGSLRLSCTASGFTFSSYAMSWVRQAPGKGLEWVSAISGTGSSTYFTDSVKGRFAISRDNSKNTLYLQMNSLRAEDTAVYYCAKDGEWLSTVTLFDYWGQGTLVTVSS
VL: EIVMTQSPATLSVSPGERATLSCRASQSVSSNLAWYQQKPGQAPRLLIYGASTRATGIPARFSGSGSGTDFTLTISSLQSEDFALYYCQQYFIWPPHPTFGPGTKVDIKR
notes: as for B1
For the molecule B6, the “t½” value in test [1] is 80 min; in test [3], 11 min.

B7: H1H27731P-N297Q (antibody, V domains shown)
VH: QLQLQESGPGLVKPSETLSLTCTVSGGSISRISYYWGWIRQPPGKGLEWIGSIYDSGSTYYNPSLKSRVTISIDTSKNQFSLKLSSVTAADTAVYYCVRYSSSSAFAFDYWGQGTLVTVSS
VL: DIQMTQSPSSVSASVGDRVTITCRASQGISSWLAWYQQKPGKAPKLLIYAASSLQSGVPSRFSGSGSGTDFTLTISSLQPEDFATYYCQQANSFPFTFGPGTKVDIKR
notes: as for B1
For B7, the figures for the “t½” value in test [1] and in test [3] were 247 min and 515 min, respectively.

B8: H1H27747P-N297Q (antibody, V domains shown)
VH: QVQLVESGGAVVQPGRSLRLSCAASGFTFSYYGMHWVRQAPGKGLEWVAVISYDGSKKYYADSVKGRFTISRDNSKNTLYLQMNSLRAEDTAVYYCAKDLTVDFYYGMDVWGQGTTVTVSS
VL: DIQMTQSPSSVSASVGDRVTITCRASQGISSWLAWYQQKPGKAPKLLIYATSSLQSGAPSRFSGSGSGTDFTLTISSLQPEDFATYFCQQANSFPYTFGQGTKLEIKR
notes: as for B1
On to B8, for which the “t½” value in test [1] was determined as 13 min.

B9: H1H27754P-N297Q (antibody, V domains shown)
VH: EVQLVESGGGLVQPGGSLRLSCAASGFTFRTYAMTWVRQAPGKGLDWVSAITGDGGNTYYADSVKGRFTISRDNSKNTLYLQMNSLRAEDTAIYYCAKDQRFSFALYYFDYWGQGTLVTVSS
VL: DIQMTQSPSSVSASVGDRVTITCRASQGISSWLAWYQQKPGNAPKLLIYAAFSLQSGVPSRFSGSGSGTDFTLTISSLQPEDFATYYCQQANNFPWTFGQGTKVEIKR
notes: as for B1
Consider B9, for which the figures for the “t½” value in test [1] and in test [2] were 657 min and 1160 min, respectively.

B10: H1H27734P-N297Q (antibody, V domains shown)
VH: EVQLVESRGGLVQPGGSLRLSCAASGFTFSSYAMSWVRQAPGKGLEWVSAISGSGGSTFYADSVKGRFTISRDNSKNTVYLQMNSLRAEDTAVYYCAKALVLRFLEWLGDYWGQGTLVTVSS
VL: DIQMTQSPSTLSASVGDRVTITCRASQSISSWLAWFQQKPGKAPKLLIYKASSLESGVPSRFSGSGSGTEFTLTISSLQPDDFATYYCQQYKSYWTFGQGTKVEIKR
notes: as for B1
As for B10, the “t½” value in test [1] amounted to 4 min; in test [3], 10 min.

B11: H1H27756P-N297Q (antibody, V domains shown)
VH: QVQLVESGGGVVQPGRSLRLSCAASGFTFSNYDMHWVRQAPGKGLEWMAVISYDGINKYYADSVKGRFTISRDNSKNTLYLQMNSLRAEDTAVYYCAKGTYSWYFDLWGRGTLVTVSS
VL: not shown
notes: as for B1
On to B11, for which the “t½” value in test [1] came out at 5 min; in test [3] it was 94 min.

B12: H1H27759P-N297Q (antibody, V domains shown)
VH: EVQLVESGGGFVQPGGSLRLSCAASGFTFSSYAMSWVRQAPGKGLEWVSAISGTGSNTYYADSVKGRFTISRDNSKNTLYLQMNSLRAEDTAVYYCAKDRVTTVTYYFDYWGQGTLVTVSS
VL: not shown
notes: human IgG1 Fc with N297Q point mutation; also called H1H27759P2-N297Q; H1xH27759P2
Take B12: the figures for the “t½” value in test [1] and in test [3] were 13 min and 9 min, respectively.

B13: H1H27761P-N297Q (antibody, V domains shown)
VH: EVQLVESGGDLVQPGGSLRLSCSASGFTFNIYAMSWVRQAPGKGLEWVSGISGSGGSTYYADSVKGRFTISRDNSKNTLYFQMNSLRVEDTAVYYCAKKISSSSYYYYAMDVWGQGTTVTVSS
VL: not shown
notes: human IgG1 Fc with N297Q point mutation; also called H1H27761P2-N297Q; H1H27761P2
As to B13, the “t½” value in test [1] was determined as 19 min; in test [3] it was 23 min.

B14: H1H27729P-N297Q (antibody, V domains shown)
VH: QVQLVESGGGLVKPGGSLRLSCAASGFIFSDYYMSWIRQAPGKGLEWVSYISSSGTTIYGDSVKGRFTMSRDNAKNSLYLQMNSLRAEDTAVYYCARNYALFDYWGQGTLVTVSS
VL: DIQMTQSPSSLSASVGDRVTITCQASQDISKYLNWYQQKPGKAPKLLIYYTSNLETGVPSRFSGSGSGTDFTFTISSLQPEDIATYYCHQSDYLPFTFGPGTKVDIKR
notes: as for B1
Consider B14, for which the figures for the “t½” value in test [1] and in test [3] were 5 min and 11 min, respectively.

B15: H1H27751P-N297Q (antibody, V domains shown)
VH: EVQLVESGGGLVQPGGSLRLSCAASGFTFSNYAMHWVRQAPGKGLEYVSAISSNGGSTYYADSVKGRITISRDNSKNTLYLQMGSLRAEDMAVYYCARGRPYYYYFGMDVWGQGTTVTVSS
VL: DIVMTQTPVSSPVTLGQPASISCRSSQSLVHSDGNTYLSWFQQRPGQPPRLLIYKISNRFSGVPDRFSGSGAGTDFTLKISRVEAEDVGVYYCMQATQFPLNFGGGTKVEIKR
notes: as for B1
As for B15, the “t½” value in test [1] turned out to be 15 min; in test [3], 38 min.
